From patent US20220363757A1 (SYMPHOGEN A S, published 2022) come the findings set out here.

Numbering of substitutions follows the chain as printed.

First the molecules themselves.
T1: human LAG-3 domain 1-2 Fc fusion, point mutation #75 R141A (human, UniProt P18627 23-266)
T1 construct: not shown: human IgG1 Fc, AA P101-K330
T1 sequence: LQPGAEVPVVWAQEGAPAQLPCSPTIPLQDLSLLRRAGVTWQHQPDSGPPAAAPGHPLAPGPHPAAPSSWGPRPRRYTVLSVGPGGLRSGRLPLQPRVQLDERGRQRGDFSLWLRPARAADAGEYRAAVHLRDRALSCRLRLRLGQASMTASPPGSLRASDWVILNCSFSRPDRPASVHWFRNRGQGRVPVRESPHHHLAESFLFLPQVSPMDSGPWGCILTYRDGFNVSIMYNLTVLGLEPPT

T2: human LAG-3 domain 1-2 Fc fusion, point mutation #24 G77A (human, UniProt P18627 23-266)
T2 construct: not shown: human IgG1 Fc, AA P101-K330
T2 sequence: T1 sequence with G55A, A119R

T3: human LAG-3 domain 1-2 Fc fusion, point mutation #14 T62A (human, UniProt P18627 23-266)
T3 construct: not shown: human IgG1 Fc, AA P101-K330
T3 sequence: T1 sequence with T40A, A119R

T4: human LAG-3 domain 1-2 Fc fusion, point mutation #55 S111A (human, UniProt P18627 23-266)
T4 construct: not shown: human IgG1 Fc, AA P101-K330
T4 sequence: T1 sequence with S89A, A119R

T5: human LAG-3 domain 1-2 Fc fusion, point mutation #53 L109A (human, UniProt P18627 23-266)
T5 construct: not shown: human IgG1 Fc, AA P101-K330
T5 sequence: T1 sequence with L87A, A119R

T6: human LAG-3 domain 1-2 Fc fusion, point mutation #29 P82A (human, UniProt P18627 23-266)
T6 construct: not shown: human IgG1 Fc, AA P101-K330
T6 sequence: T1 sequence with P60A, A119R

T7: human LAG-3 domain 1-2 Fc fusion, point mutation #44 R97A (human, UniProt P18627 23-266)
T7 construct: not shown: human IgG1 Fc, AA P101-K330
T7 sequence: T1 sequence with R75A, A119R

T8: human LAG-3 domain 1-2 Fc fusion, point mutation #47 T100A (human, UniProt P18627 23-266)
T8 construct: not shown: human IgG1 Fc, AA P101-K330
T8 sequence: T1 sequence with T78A, A119R

T9: human LAG-3 domain 1-2 Fc fusion, point mutation #74 P138A (human, UniProt P18627 23-266)
T9 construct: not shown: human IgG1 Fc, AA P101-K330
T9 sequence: T1 sequence with P116A, A119R

B1: Fab fragment of antibody 15572 (Fab, V domains shown, not shown: a dimerising Fc or GST)
VH: QLQLQESGPGLVKPSETLSLTCTVSGDSISSSSYYWGWIRQPPGKGLEWIGSIFYSGNTYYNPSLKSRVTISVDTSKNQFSLKLSSVTAADTAVYYCAREDDFLTDYYGAFDIWGQGTMVTVSS
VL: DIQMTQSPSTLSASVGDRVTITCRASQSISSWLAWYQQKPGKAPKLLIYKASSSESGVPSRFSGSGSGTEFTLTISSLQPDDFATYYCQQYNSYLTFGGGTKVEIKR
notes: monomeric Fab made by GingisKHAN digestion of the IgG1
B2: Fab fragment of antibody 15532 (Fab, V domains shown, not shown: a dimerising Fc or GST)
VH: QVQLQQWGAGLLRPSETLSLTCAVYGESFSGYYWNWIRQPPGKGLEWIGEINHSGSTNYNPSLKSRVTISVDTSKTQFSLKLSSVTAADTAVYYCARGWDLLDWNDYWNEYWGQGTLVTVSS
VL: EIVLTQSPATLSLSPGERATLSCRASQSVSSYLAWYQQKPGQAPRLLIYDASNRATGIPARFSGSGSGTDFTLTISSLEPEDFAVYYCQQRSNWPLTFGGGTKVEIKR
notes: as for B1
B3: Fab fragment of antibody 15431 (Fab, V domains shown, not shown: a dimerising Fc or GST)
VH: QVQLQQSGPGLVKPSQTLSLTCAISGDSVSSNSAAWNWIRQSPSRGLEWLGRTYYRSKWYNDYAVSVKSRITINPDTSKNQFSLQLNSVTPEDTAVYYCARDDDWNDFDYWGQGTLVTVSS
VL: B2 VL
notes: as for B1
B4: Fab fragment of antibody 15011 (Fab, V domains shown, not shown: a dimerising Fc or GST)
VH: EVQLLESGGGLVQPGGSLRLSCAASGFDFRSYAMMWVRQAPGKGLEWVGGINGEVGGSNTYYAPAVKGRATISRDNSKNTLYLQMNSLRAEDTAVYYCVKGAGACGICNDDIDAWGQGTLVTVSS
VL: SYELTQDPAVSVALGQTVRITCSGAGSYAGSYYYGWHQQKPGQAPVTVIYDNDKRPSNIPDRFSGSSSGNTASLTITGAQAEDEADYYCGSTNDNDDGGLFGSGTKVTVLG
notes: as for B1

For the first assay, the target named is T1, human LAG-3 domain 1-2 Fc fusion, point …. In words: SPR, Fab over captured mutant LAG-3-Fc. (In SPR one partner is held on a chip, and binding of the other changes the refractive index at the surface.)
As to B1, the “KD mutant/KD wild type” value amounted to 0.9 fold.

For B2, the “KD mutant/KD wild type” value came out at 0.7 fold.

Take B3: the “KD mutant/KD wild type” value was found to be 1 fold.

As for B4, the “KD mutant/KD wild type” value came to 1.1 fold.

The target in a further assay is T2, human LAG-3 domain 1-2 Fc fusion, point …. In words: SPR, Fab over captured mutant LAG-3-Fc.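 Note: fc fusion variants captured on anti-human IgG Fc sensor, Fab injected with association then dissociation phases, KD obtained from Langmuir one-to-one fit.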
In the case of B1, the “KD mutant/KD wild type” value turned out to be 0.7 fold.

Take B2: the “KD mutant/KD wild type” value turned out to be 1 fold.

B3: the “KD mutant/KD wild type” value was 0.7 fold.

In the case of B4, the “KD mutant/KD wild type” value came to 0.8 fold.

A further assay has as its target T3, human LAG-3 domain 1-2 Fc fusion, point …. In words: SPR, Fab over captured mutant LAG-3-Fc.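 Note: fc fusion variants captured on anti-human IgG Fc sensor, Fab injected with association then dissociation phases, KD obtained from Langmuir one-to-one fit.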
In the case of B1, the binding result is “no binding (tested: 300 nM)”.

Regarding B2, the “KD mutant/KD wild type” value worked out at 4.2 fold.

Turning to B3, the binding result is “no binding (tested: 300 nM)”.

In the case of B4, the “KD mutant/KD wild type” value was determined as 0.6 fold.

For another assay, the target named is T4, human LAG-3 domain 1-2 Fc fusion, point …. In words: SPR, Fab over captured mutant LAG-3-Fc.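 Note: fc fusion variants captured on anti-human IgG Fc sensor, Fab injected with association then dissociation phases, KD obtained from Langmuir one-to-one fit.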
With B1, the “KD mutant/KD wild type” value was 0.7 fold.

For B2, the “KD mutant/KD wild type” value worked out at 1 fold.

For B3, the “KD mutant/KD wild type” value came to 0.8 fold.

For the molecule B4, the “KD mutant/KD wild type” value was found to be 53.4 fold.

A further assay deals with T5, human LAG-3 domain 1-2 Fc fusion, point …. The experiment in a line: SPR, Fab over captured mutant LAG-3-Fc.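 Note: fc fusion variants captured on anti-human IgG Fc sensor, Fab injected with association then dissociation phases, KD obtained from Langmuir one-to-one fit.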
Consider B1, for which the “KD mutant/KD wild type” value came out at 1 fold.

For the molecule B2, the “KD mutant/KD wild type” value amounted to 1.1 fold.

On to B3, for which the “KD mutant/KD wild type” value turned out to be 1 fold.

Take B4: the “KD mutant/KD wild type” value came to 84.2 fold.

For another assay, the target named is T6, human LAG-3 domain 1-2 Fc fusion, point …. The experiment in a line: SPR, Fab over captured mutant LAG-3-Fc.
As for B1, the “KD mutant/KD wild type” value was found to be 0.8 fold.

In the case of B2, the “KD mutant/KD wild type” value came to 1 fold.

B3: the “KD mutant/KD wild type” value was 1 fold.

As to B4, the “KD mutant/KD wild type” value came to 0.9 fold.

The next assay deals with T7, human LAG-3 domain 1-2 Fc fusion, point …. The experiment in a line: SPR, Fab over captured mutant LAG-3-Fc.
Turning to B1, the “KD mutant/KD wild type” value came to 0.6 fold.

Regarding B2, the “KD mutant/KD wild type” value was determined as 0.9 fold.

As to B3, the “KD mutant/KD wild type” value worked out at 1.3 fold.

For the molecule B4, the “KD mutant/KD wild type” value worked out at 0.7 fold.

The target in the next assay is T8, human LAG-3 domain 1-2 Fc fusion, point …. In words: SPR, Fab over captured mutant LAG-3-Fc.
For the molecule B1, the binding result is listed as “no binding (tested: 300 nM)”.

B2: the “KD mutant/KD wild type” value worked out at 3.9 fold.

Turning to B3, the binding result was “no binding (tested: 300 nM)”.

In the case of B4, the “KD mutant/KD wild type” value was determined as 0.6 fold.

A further assay addresses T9, human LAG-3 domain 1-2 Fc fusion, point …. The experiment in a line: SPR, Fab over captured mutant LAG-3-Fc.
On to B1, for which the binding result is reported as “no binding (tested: 300 nM)”.

With B2, the “KD mutant/KD wild type” value was 2.7 fold.

With B3, the binding result is on record as “no binding (tested: 300 nM)”.

For the molecule B4, the “KD mutant/KD wild type” value turned out to be 0.7 fold.
